Reference: article PMC1933414, “Role of RGM coreceptors in bone morphogenetic protein signaling” (Journal of Molecular Signaling, 2007)
One block for each molecule: values may come before it.

Experiments:
Experiment in all cases: SPR; BIAcore 3000; BMP2 (350 RU) or BMP12 (1000 RU) amine-coupled on CM5 chips; soluble RGM injected at 0.1-100 nM, 30 uL/min, 500 s, 25°C; HBS-EP pH 7.4 (0.15 M NaCl); global analysis with BIAevaluation 3.2; double referencing
[1] = target: Human BMP12 (bone morphogenetic protein 12) (human) (UniProt Q7Z4P5)
[2] = target: Human BMP2 (bone morphogenetic protein 2) (human) (UniProt P12643)
Chain of Human BMP2 (bone morphogenetic protein 2) (human) (P12643 283-396): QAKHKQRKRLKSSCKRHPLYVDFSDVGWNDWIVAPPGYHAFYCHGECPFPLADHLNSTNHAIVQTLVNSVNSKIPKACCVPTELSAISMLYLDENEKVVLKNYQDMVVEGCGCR

[3] = target: T1, Human BMP12 (bone morphogenetic protein 12) (human, UniProt Q7Z4P5 322-450); details: both partners purified
T1 construct: bone morphogenetic protein 12 (GDF7), human; the dimer peak from size exclusion was used; also called recombinant human BMP12; source: E. coli, purified (SP-Sepharose cation exchange, size exclusion; dimer peak)
T1 sequence (looked up): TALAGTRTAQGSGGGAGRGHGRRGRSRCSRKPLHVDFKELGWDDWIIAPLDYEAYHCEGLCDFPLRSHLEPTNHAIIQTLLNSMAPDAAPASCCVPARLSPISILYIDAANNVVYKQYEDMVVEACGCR

[4] = target: T2, Human BMP2 (bone morphogenetic protein 2) (human, UniProt P12643 283-396); details: both partners purified
T2 construct: bone morphogenetic protein 2, human; purified recombinant protein; also called recombinant human BMP2; source: produced and purified as previously described [37]
T2 sequence (P12643 283-396): as the sequence (P12643 283-396) above

Kd [1]: 2.06 nM
koff [1]: 0.000118 s⁻¹
kon [1]: 56900 M⁻¹ s⁻¹
Kd [2]: 5.43 nM
koff [2]: 0.000256 s⁻¹
kon [2]: 47200 M⁻¹ s⁻¹
Molecule: RGMb-Fc (ectodomain of RGMb fused to the Fc portion of human IgG) (from UniProt Q6NW40 46-413) (Fc fusion)

Kd [1]: 1.22 nM
koff [1]: 9.22e-05 s⁻¹
kon [1]: 75600 M⁻¹ s⁻¹
Kd [2]: 4.22 nM
koff [2]: 0.000363 s⁻¹
kon [2]: 86100 M⁻¹ s⁻¹
Molecule: RGMc-Fc (ectodomain of RGMc fused to the Fc portion of human IgG) (from UniProt Q6ZVN8 36-400) (Fc fusion)

Kd [3]: 1.41 nM
koff [3]: 0.000179 s⁻¹
kon [3]: 127000 M⁻¹ s⁻¹
Kd [4]: 2.46 nM
koff [4]: 0.000364 s⁻¹
kon [4]: 148000 M⁻¹ s⁻¹
B1: RGMa-Fc (ectodomain of RGMa fused to the Fc portion of human IgG) (Fc fusion)
chain: CKILKCNSEFWSATSGSHAPASDDTPEFCAALRSYALCTRRTARTCRGDLAYHSAVHGIEDLMSQHNCSKDGPTSQPRLRTLPPAGDSQERSDSPEICHYEKSFHKHSATPNYTHCGLFGDPHLRTFTDRFQTCKVQGAWPLIDNNYLNVQVTNTPVLPGSAATATSKLTIIFKNFQECVDQKVYQAEMDELPAAFVDGSKNGGDKHGANSLKITEKVSGQHVEIQAKYIGTTIVVRQVGRYLTFAVRMPEEVVNAVEDWDSQGLYLCLRGCPLNQQIDFQAFHTNAEGTGARRLAAASPAPTAPETFPYETAVAKCKEKLPVEDLYYQACVFDLLTTGDVNFTLAAYYALEDVKMLHSNKDKLHLYERTRDLPGRA
